# Data taken from patent publication US7393946, “Method of modulating metabolite biosynthesis in recombinant cells” (Rijksuniversiteit Leiden).
# Experiments:
# ORCA-1 = ORCA-1 (Catharanthus roseus); test: cell_activity; within Str1 BH promoter, GUS/CAT, C. roseus cells
# ORCA-2 = ORCA-2 (Catharanthus roseus); test: as above
# ORCA-2 (Catharanthus roseus), sequence (chain, as listed by the source): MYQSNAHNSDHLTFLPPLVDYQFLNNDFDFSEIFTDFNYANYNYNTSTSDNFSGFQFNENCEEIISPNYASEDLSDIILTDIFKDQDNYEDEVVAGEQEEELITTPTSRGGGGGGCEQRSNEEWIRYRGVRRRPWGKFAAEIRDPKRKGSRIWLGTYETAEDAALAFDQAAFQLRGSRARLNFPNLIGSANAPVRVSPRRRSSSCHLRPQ
# ORCA-1 (Catharanthus roseus), sequence (chain, as listed by the source): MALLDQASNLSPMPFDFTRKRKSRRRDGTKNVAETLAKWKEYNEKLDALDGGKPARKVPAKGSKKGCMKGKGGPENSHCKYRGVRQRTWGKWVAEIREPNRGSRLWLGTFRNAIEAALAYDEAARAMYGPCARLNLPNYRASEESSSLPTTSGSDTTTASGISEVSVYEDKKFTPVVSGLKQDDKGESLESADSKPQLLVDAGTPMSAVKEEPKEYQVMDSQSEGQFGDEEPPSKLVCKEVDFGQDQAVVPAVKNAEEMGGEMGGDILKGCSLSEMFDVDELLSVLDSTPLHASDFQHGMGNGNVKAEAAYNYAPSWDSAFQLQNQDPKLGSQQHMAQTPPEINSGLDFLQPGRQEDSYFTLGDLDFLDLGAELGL
binder,measurement,setting,value
RV region of Str1 promoter (dsDNA) DNA 1: GTACATCACTCTTAGACCGCCTTCTTTGAAAGTGATTTCCCTTGGACC DNA 2: GGTCCAAGGGAAATCACTTTCAAAGAAGGCGGTCTAAGAGTGATGTAC,activity,ORCA-1,1.6 fold induction
same,activity,ORCA-2,3.3 fold induction
